Key:
Experiment in all cases: cell_activity
[1] = system: AGMT8-C1 ZFP-TF (Artificial); conditions: control 1.00; napin promoter; effective activator in leaf, not in seed per p274
[2] = system: CGMT12-C1 ZFP-TF (Artificial); conditions: control 39.9; napin promoter, transgenic canola
[3] = system: CGMT6-C1 ZFP-TF (Artificial); conditions: control 39.9; napin promoter, transgenic canola
[4] = system: AGMT9-C1 ZFP-TF (Artificial); conditions: control 1.00; napin promoter, transgenic Arabidopsis
[5] = system: AGMT10-C1 ZFP-TF (Artificial); conditions: control 1.00; napin promoter; effective activator in leaf
[6] = system: AGMT7-C1 ZFP-TF (Artificial); conditions: control 1.00; napin promoter; 35S promoter 1.69; 5-fold GMT mRNA increase in leaf protoplasts (p271)
[7] = system: CGMT4-C1 ZFP-TF (Artificial); conditions: control 39.9; napin promoter, transgenic canola
[8] = system: CGMT3-C1 ZFP-TF (Artificial); conditions: control 39.9; napin promoter, transgenic canola
[9] = system: CGMT9-C1 ZFP-TF (Artificial); conditions: control 39.9; napin promoter, transgenic canola
[10] = system: AGMT5-C1 ZFP-TF (Artificial); conditions: control 1.00; napin promoter, transgenic Arabidopsis
[11] = system: CGMT10-C1 ZFP-TF (Artificial); conditions: control 39.9; napin promoter, transgenic canola
[12] = system: AGMT6-C1 ZFP-TF (Artificial); conditions: control 1.00; napin promoter, transgenic Arabidopsis

Sequence: GAAGAGGGTG (double strand) [ZFP C / AGMT8 target]
- activity (% alpha-tocopherol in T2 seed) [1]: 1.57

Sequence: GAGGTTGGC (double strand) [CGMT12 target]
- activity (% alpha-tocopherol in R1 seed) [2]: 64.5

Sequence: GAGGTTGGA (double strand) [CGMT6 target]
- activity (% alpha-tocopherol in R1 seed) [3]: 59.6

Sequence: GAGGAGGATG (double strand) [ZFP D / AGMT9 target]
- activity (% alpha-tocopherol in T2 seed) [4]: 2.31

Sequence: GAGGAGGAGG (double strand) [ZFP E / AGMT10 target]
- activity (% alpha-tocopherol in T2 seed) [5]: 2.86

Sequence: GGGGAAAGGG (double strand) [ZFP B / AGMT7 target]
- activity (% alpha-tocopherol in T2 seed) [6]: 5.95

Sequence: GAGGAAGAT (double strand) [CGMT4 target]
- activity (% alpha-tocopherol in R1 seed) [7]: 51.9

Sequence: GATGCTGGT (double strand) [CGMT3 target]
- activity (% alpha-tocopherol in R1 seed) [8]: 46.6

Sequence: TAGTTGGAA (double strand) [CGMT9 target]
- activity (% alpha-tocopherol in R1 seed) [9]: 46.2

Sequence: GAGGAAGGGG (double strand) [ZFP A / AGMT5 target]
- activity (% alpha-tocopherol in T2 seed) [10]: 4.45

Sequence: GTAGAGGAC (double strand) [CGMT10 target]
- activity (% alpha-tocopherol in R1 seed) [11]: 54.2

Sequence: TGGGTAGTC (double strand) [AGMT6 target]
- activity (% alpha-tocopherol in T2 seed) [12]: 1.74
